From patent publication CN110903391A (DONGDA BIOTECHNOLOGY SUZHOU CO LTD, dated 2020) come the findings set out here.

Residue numbers refer to the chain shown, from its start.

One assay has as its target 带组氨酸标签的PD-L1抗原 (UniProt Q9NZQ7). Briefly: Biacore 3000 SPR, antibody captured by anti-human IgG on CM5, PD-L1-His as analyte.
Assay [1] addresses T1, PD-L1 on 293T-PD-L1细胞 (human, UniProt Q9NZQ7 19-290).
T1 construct: whole, on cells; Construct not described
Description: FACS on 293T-PD-L1 cells.

Assay [2] concerns the target T1, PD-L1 on 293T-PD-L1细胞. Description: competition FACS on 293T-PD-L1 cells, competitor PD-1-biotin.
The target of assay [3] is T2, PD-L1-ECD-hFc (human, UniProt Q9NZQ7 19-238).
T2 construct: extracellular domain; Coated on the ELISA plate; also called PD-L1-hFc; PD-L1-hFc蛋白; not shown: hFc: human Fc
T2 sequence (Q9NZQ7 19-238): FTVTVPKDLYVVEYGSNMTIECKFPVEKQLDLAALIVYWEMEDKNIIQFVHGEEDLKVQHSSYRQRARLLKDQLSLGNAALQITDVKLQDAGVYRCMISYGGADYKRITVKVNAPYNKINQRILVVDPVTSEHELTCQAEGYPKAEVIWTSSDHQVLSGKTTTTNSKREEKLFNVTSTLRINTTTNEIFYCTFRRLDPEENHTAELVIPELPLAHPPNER
Briefly: competition ELISA, PD-L1-ECD-hFc coated, competitor PD-1-biotin. For orientation: An ELISA detects its analyte on a solid surface through an enzyme-linked reagent.

In assay [4] the target is T2, PD-L1-ECD-hFc. Description: ELISA, PD-L1-ECD-hFc coated.

T1 sequence (Q9NZQ7 19-290): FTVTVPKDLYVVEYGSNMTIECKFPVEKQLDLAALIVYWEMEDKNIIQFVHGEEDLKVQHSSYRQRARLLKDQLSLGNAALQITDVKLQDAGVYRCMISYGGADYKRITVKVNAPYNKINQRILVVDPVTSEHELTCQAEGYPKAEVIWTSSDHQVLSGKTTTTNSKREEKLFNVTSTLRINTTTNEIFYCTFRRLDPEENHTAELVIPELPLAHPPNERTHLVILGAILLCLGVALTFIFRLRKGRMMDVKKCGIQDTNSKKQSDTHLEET

B1: 亲和力成熟的人源化10E9C7G2抗体(重链Seq ID 48, 轻链Seq ID 50) (antibody, V domains shown)
VH: QVQLQQSGPGLVKPSQTLSLTCAISGDSVSSGYWNWIRQSPSRGLEYMGYISYTGSTYYSLSLKSRITINRDTSKNQYSLQLNSVTPEDTAVYYCARGDYGSDWPPWFAYWGQGTTVTVSS
VL: DIQMTQSPSSLSASVGDRVTITCSASISISSNSLQWYQQKPGKAPKLLIYRTTNLPSGVPSRFSGSGSGTDYTLTISSLQPEDFATYYCQQSGGLPLTFGQGTKLEIK
For B1, in the assay with 带组氨酸标签的PD-L1抗原, the fold increase of affinity against humanized 10E9C7G2 was 7.2 倍 (fold).

B2: 10E9C7G2人源化完整抗体 (antibody, human IgG1, kappa, V domains shown)
VH: B1 VH with V29I, S30T, S60N
VL: DIQMTQSPSSLSASVGDRVTITCSASSSISSNSLQWYQQKPGKAPKLLIYRTTNLPSGVPSRFSGSGSGTDYTLTISSLQPEDFATYYCQQSSGLPLTFGQGTKLEIKR
notes: Humanized IgG1; expressed in 293 cells; also called hu10E9C7G2; 人源化的10E9C7G2抗体
Consider B2, for which the concentration giving a half-maximal response (EC50) with PD-L1 on 293T-PD-L1细胞 [1] is 0.0392 µg/mL; with PD-L1-ECD-hFc [4], 0.000684 µg/mL. Moreover, the results for the IC50 in the assay with PD-L1 on 293T-PD-L1细胞 [2] and with PD-L1-ECD-hFc [3] were 0.0327 µg/mL and 0.147 µg/mL, respectively.

B3: 亲和力成熟的人源化10E9C7G2抗体(重链Seq ID 49, 轻链Seq ID 50) (antibody, V domains shown)
VH: B1 VH with S60D
VL: B1 VL
For B3, in the assay with 带组氨酸标签的PD-L1抗原, the fold increase of affinity against humanized 10E9C7G2 is 4.8 倍 (fold).

B4: 亲和力成熟的人源化6C8D8抗体(重链Seq ID 43, 轻链Seq ID 44) (antibody, V domains shown)
VH: QITLKESGPTLVKPTQTLTLTCTVSGFSLTSYDISWIRQPPGKALEWLGVIWTGGGTTYNSAFMSRLTITKDNSKNQVVLTMTNMDPVDTATYYCVRGRDWDFDYWGQGTLVTVSS
VL: EIVLTQSPDFQSVTPKEKVTITCRASQSIGTSIHWYQQKPDQSPKLLIKYVSESISGVPSRFSGSGSGTDFTLTINSLEAEDAATYYCQQSNSWPFTFGQGTKLEIK
For B4, the fold increase of affinity against humanized 6C8D8 with 带组氨酸标签的PD-L1抗原 was 9.25 倍 (fold).

B5: 6C8D8人源化完整抗体 (antibody, human IgG1, kappa, V domains shown)
VH: B4 VH with T58N
VL: EIVLTQSPDFQSVTPKEKVTITCRASQSIGTSIHWYQQKPDQSPKLLIKYASESISGVPSRFSGSGSGTDFTLTINSLEAEDAATYYCQQSNSWPFTFGQGTKLEIKR
notes: Humanized IgG1; expressed in 293 cells; also called hu6C8D8; 人源化的6C8D8抗体
With B5, the EC50 amounted to 0.0413 µg/mL with PD-L1 on 293T-PD-L1细胞 [1] and 0.00224 µg/mL with PD-L1-ECD-hFc [4]. Also, the half-inhibitory concentration (IC50) with PD-L1 on 293T-PD-L1细胞 [2] stood at 0.0437 µg/mL; in the assay with PD-L1-ECD-hFc [3], 0.139 µg/mL.

B6: 6F9B1A6人源化完整抗体 (antibody, human IgG1, kappa, V domains shown)
VH: QVQLVQSGAEVKKPGSSVKVSCKASGYTFIGYTVHWVRQAPGQGLEWIGWFYPGSGSIKYNEKFKDRATLTADKSTSTVYMELSSLRSEDTAVYYCARHGTGKFNYFDVWGQGTTVTVSS
VL: DIQLTQSPSFLSASVGDRVTITCRASSTVSYMHWYQQKPGKAPKPWIYATFNLASGVPSRFSGSGSGTEYTLTISSLQPEDFATYYCQPWSSYPLTFGQGTKLEIKR
notes: Humanized IgG1; expressed in 293 cells; also called hu6F9B1A6; 人源化的6F9B1A6抗体
B6: the half-maximal effective concentration (EC50) came out at 0.0412 µg/mL in the assay with PD-L1 on 293T-PD-L1细胞 [1] and 0.00448 µg/mL in the assay with PD-L1-ECD-hFc [4]. For the same molecule, the IC50 is 0.0365 µg/mL with PD-L1 on 293T-PD-L1细胞 [2] and 0.108 µg/mL with PD-L1-ECD-hFc [3].

By EC50 is commonly meant the concentration that produces a half-maximal response. Higher therefore signals a less potent agent. The term IC50 denotes the midpoint of a concentration-inhibition curve. A lower IC50 goes with higher potency.
